Reference: patent US20210206861A1 (SUNSHINE GUOJIAN PHARMACEUTICAL SHANGHAI, published 2021)

B1: 4-2-Humanized-IgG1 (antibody)
heavy: not shown
light: DIQMTQSPSSLSASVGDRVTITCRASSSINYMHWYQQKPGKAPKPWIYAASNLASGVPSRFSGSGSGTDFTLTISSLQPEDFATYYCQQWSSYPITFGQGTKVEIKRTVAAPSVFIFPPSDEQLKSGTASVVCLLNNFYPREAKVQWKVDNALQSGNSQESVTEQDSKDSTYSLSSTLTLSKADYEKHKVYACEVTHQGLSSPVTKSFNRGEC
notes: expressed in HEK293E; also called humanized antibody 4-2-Humanized-IgG1
B2: 4-2-Humanized-IgG1-SELF (antibody)
heavy: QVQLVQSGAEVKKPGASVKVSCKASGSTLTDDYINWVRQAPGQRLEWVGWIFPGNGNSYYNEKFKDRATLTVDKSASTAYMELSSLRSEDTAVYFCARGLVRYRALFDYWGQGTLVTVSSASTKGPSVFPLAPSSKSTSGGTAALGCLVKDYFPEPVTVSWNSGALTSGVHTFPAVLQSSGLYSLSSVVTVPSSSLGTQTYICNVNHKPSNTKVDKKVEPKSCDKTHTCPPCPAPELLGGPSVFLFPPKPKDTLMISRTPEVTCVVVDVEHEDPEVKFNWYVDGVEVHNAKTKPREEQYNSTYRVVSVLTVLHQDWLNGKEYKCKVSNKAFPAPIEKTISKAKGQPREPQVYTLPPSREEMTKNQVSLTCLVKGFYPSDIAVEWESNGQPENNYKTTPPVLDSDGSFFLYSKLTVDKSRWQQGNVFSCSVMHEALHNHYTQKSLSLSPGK
light: B1 light
notes: also called SELF mutant of anti-human IL-4R humanized antibody
B3: 4-2-Humanized-IgG4 (antibody)
heavy: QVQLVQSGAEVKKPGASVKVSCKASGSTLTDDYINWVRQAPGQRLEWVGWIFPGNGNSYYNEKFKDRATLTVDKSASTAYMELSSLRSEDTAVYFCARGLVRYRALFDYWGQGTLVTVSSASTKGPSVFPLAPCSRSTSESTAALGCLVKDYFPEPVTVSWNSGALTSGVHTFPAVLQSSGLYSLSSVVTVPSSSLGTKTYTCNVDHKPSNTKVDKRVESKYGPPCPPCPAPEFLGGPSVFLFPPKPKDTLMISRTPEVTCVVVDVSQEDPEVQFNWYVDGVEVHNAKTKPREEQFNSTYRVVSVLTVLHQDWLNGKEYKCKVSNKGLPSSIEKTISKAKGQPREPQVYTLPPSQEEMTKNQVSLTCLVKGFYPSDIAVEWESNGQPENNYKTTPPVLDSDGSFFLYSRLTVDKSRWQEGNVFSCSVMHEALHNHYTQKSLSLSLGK
light: B1 light
notes: also called 4-2-Hu-IgG4
B4: Dupilumab (antibody, V domains shown)
VH: EVQLVESGGGLEQPGGSLRLSCAGSGFTFRDYAMTWVRQAPGKGLEWVSSISGSGGNTYYADSVKGRFTISRDNSKNTLYLQMNSLRAEDTAVYYCAKDRLSITIRPRYYGLDVWGQGTTVTVSS
VL: DIVMTQSPLSLPVTPGEPASISCRSSQSLLYSIGYNYLDWYLQKSGQSPQLLIYLGSNRASGVPDRFSGSGSGTDFTLKISRVEAEDVGFYYCMQALQTPYTFGQGTKLEIKR
B5: 4-2-Chimeric-IgG1 (antibody, V domains shown)
VH: QVQLQQSGPELVKPGASVKISCTASGSTLTDDYINWVKQRPGRGLEWVGWIFPGNGNSYYNEKFKDKATLIVDKSSSTAYMLLSSLTSEDSAVYFCARGLVRYRALFDYWGQGTTLTVSS
VL: QIVLSQSPAILSASPGEKVTMTCRASSSINYMHWYQQKPGSSPKPWIYAASNLASGVPARFSGSGSGTSFSLTISRVEAEDAATYYCQQWSSYPITFGSGTKLEIK
notes: also called chimeric antibody 4-2-Chimeric-IgG1

target: T1, Biotinated IL-4R-ECD-hFc (human, UniProt P24394 26-232, biotinylated with Biotin N-hydroxysuccinimide ester (sites not given)); test: blocking ELISA: coated IL-4-hFc (2000 ng/ml), biotinylated IL-4R-ECD-hFc (100 ng/ml) with antibody in dilution series, Streptavidin-HRP
T1 construct: also called biotinylated IL-4R-ECD-hFc; not shown: hFc (IgG1) tag
Description: The plate was washed with phosphate buffer containing 0.05% Tween-20 (PBST) and blocked by adding PBST containing 1% bovine serum albumin to each well. Then the plate was washed with PBST. […] The plate was washed with PBST. Streptavidin-HRP which was diluted with PBST containing 1% BSA at a dilution ratio of 1:1000 was added at 100 μl/well and incubated at 37° C. for 30 min. Chromogenic solution (TMB substrate solution) was added at 100 μl/well, and incubated at room temperature for 1˜5 min; then 50 μl/well of the stop solution was added to stop the color reaction. OD450 values were read with a microplate reader and GraphPad Prism6 was used to analyze data, prepare graphs, and calculate IC50.

Binder | IC50 [µg/mL]
B1 | 0.138
B2 | 0.144
B3 | 0.14

target: human IL-4R (human, UniProt P24394 26-825); test: cell-based or functional assay

Binder | IC50 of inhibition of IL-4-induced CD23 expression by PBMC, first experiment [µg/mL] | IC50 of inhibition of IL-4-induced CD23 expression by PBMC, second experiment [µg/mL] | IC50 of inhibition of IL-4-induced IgE secretion by PBMC, first experiment [µg/mL] | IC50 of inhibition of IL-4-induced IgE secretion by PBMC, second experiment [µg/mL] | IC50 of inhibition of IL-4-induced TF-1 cell proliferation, first experiment [µg/mL] | IC50 of inhibition of IL-4-induced TF-1 cell proliferation, second experiment [µg/mL] | IC50 of inhibition of IL-4-induced TF-1 cell proliferation, third experiment [µg/mL] | IC50 of inhibition of IL-13-induced TF-1 cell proliferation [µg/mL] | IC50 of inhibition of IL-4-induced TF-1 cell proliferation [µg/mL]
B4 | 0.0909 | 0.0206 | 0.996 | 0.189 | 0.842 | 0.616 | 0.687 | 0.0738 | –
B1 | 0.0294 | 0.00356 | 0.448 | 0.0613 | 0.561 | 0.427 | 0.52 | 0.0343 | –
B2 | 0.0074 | 0.00049 | 0.0508 | 0.0266 | – | – | – | – | 0.292
B3 | 0.232 | 0.034 | 1.95 | 0.413 | 1.29 | 1.11 | 1.15 | – | 2.78
B5 | – | – | – | – | – | – | – | 0.0816 | 0.225

target: T2, IL-4R-ECD-FLAG (human, UniProt P24394 26-232); test: ELISA on coated IL-4R-ECD-FLAG (100 ng/ml), HRP goat anti-human secondary
T2 construct: Expressed in HEK293, purified on an anti-FLAG column; also called IL-4R antigen; human IL-4R; not shown: FLAG tag added to the end of the IL-4R-ECD coding region

Binder | EC50 [µg/mL]
B1 | 0.0124
B5 | 0.0118

target: T2, IL-4R-ECD-FLAG; test: SPR, Biacore T200; antibody captured on Protein A/G CM5 chip, IL-4R-ECD-FLAG injected
Description: Next cycle was repeated after eluting the chip with 6M guanidine hydrochloride regeneration buffer. The data was analyzed using Biacore T200 Evaluation Software.

Binder | Kd [nM] | koff [s⁻¹] | kon [M⁻¹ s⁻¹]
B1 | 0.717 | 0.000133 | 186000
B3 | 0.692 | 0.00013 | 188000
